Consider one substance from publication PMC9395280.

The test addresses SARS-CoV-2 WT RBD protein (SARS-CoV-2, wild-type (ancestral)) (UniProt P0DTC2). Briefly: SPR. On the technique in general: SPR reads the build-up and loss of mass on a sensor chip optically.

Substance P2C-1F11-I27F (antibody) registered a fold decrease of affinity against P2C-1F11 greater than 7 fold.
